Test results taken from publication PMC11865535 (Nature Communications, 2025).
Values belong to the binder of their own block, whether it stands above or below them.

Target: CUL1^FlAsH preassembled with SKP1·SKP2 (UniProt Q13616;P62877;P63208;Q13309, FlAsH fluorophore on the C-terminal tetracysteine tag)
Experiment: FRET or BRET

Chain of CUL1^FlAsH preassembled with SKP1·SKP2 (Q13616 whole entry, chain 1 of 3): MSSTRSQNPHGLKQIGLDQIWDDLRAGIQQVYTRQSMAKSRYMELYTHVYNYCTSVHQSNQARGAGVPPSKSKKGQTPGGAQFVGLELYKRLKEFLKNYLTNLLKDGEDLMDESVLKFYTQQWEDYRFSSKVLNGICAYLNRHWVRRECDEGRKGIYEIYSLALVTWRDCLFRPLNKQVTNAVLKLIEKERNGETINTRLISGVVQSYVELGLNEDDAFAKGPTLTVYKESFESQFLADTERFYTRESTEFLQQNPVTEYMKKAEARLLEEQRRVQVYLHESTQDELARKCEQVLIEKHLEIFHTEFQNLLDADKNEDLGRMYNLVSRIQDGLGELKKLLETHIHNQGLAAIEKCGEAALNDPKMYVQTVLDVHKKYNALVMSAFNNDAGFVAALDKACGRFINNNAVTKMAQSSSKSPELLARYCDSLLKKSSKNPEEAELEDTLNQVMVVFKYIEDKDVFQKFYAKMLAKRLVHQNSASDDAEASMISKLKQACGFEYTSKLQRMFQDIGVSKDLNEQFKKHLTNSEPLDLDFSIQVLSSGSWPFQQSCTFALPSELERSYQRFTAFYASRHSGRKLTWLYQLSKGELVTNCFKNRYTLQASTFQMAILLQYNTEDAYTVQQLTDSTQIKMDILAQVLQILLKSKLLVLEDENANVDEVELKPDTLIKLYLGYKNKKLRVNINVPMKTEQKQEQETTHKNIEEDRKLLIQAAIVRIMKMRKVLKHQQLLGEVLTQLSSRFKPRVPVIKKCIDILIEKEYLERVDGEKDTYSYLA
Chain of CUL1^FlAsH preassembled with SKP1·SKP2 (P63208 whole entry, chain 3 of 3): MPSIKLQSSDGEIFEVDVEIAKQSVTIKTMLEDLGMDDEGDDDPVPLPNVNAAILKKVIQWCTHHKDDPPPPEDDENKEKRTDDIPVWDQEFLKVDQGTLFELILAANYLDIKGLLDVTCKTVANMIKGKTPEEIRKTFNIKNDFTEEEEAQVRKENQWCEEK
Chain of CUL1^FlAsH preassembled with SKP1·SKP2 (Q13309 whole entry, chain 4 of 3): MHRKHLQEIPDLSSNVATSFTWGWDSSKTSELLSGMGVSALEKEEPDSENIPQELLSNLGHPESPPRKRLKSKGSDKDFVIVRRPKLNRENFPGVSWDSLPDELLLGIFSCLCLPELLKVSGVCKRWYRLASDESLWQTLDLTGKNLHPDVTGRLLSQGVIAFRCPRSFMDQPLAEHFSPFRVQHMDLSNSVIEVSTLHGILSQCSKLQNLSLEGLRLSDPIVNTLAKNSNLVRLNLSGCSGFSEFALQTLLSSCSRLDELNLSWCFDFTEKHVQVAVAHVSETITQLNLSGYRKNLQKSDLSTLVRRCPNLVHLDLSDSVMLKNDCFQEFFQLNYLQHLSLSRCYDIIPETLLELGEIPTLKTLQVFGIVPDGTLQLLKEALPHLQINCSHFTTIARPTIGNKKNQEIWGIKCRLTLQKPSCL

- koff: 2.5 s⁻¹
B1: ^CFPCAND1 (natural protein)
chain: MASASYHISNLLEKMTSSDKDFRFMATNDLMTELQKDSIKLDDDSERKVVKMILKLLEDKNGEVQNLAVKCLGPLVSKVKEYQVETIVDTLCTNMLSDKEQLRDISSIGLKTVIGELPPASSGSALAANVCKKITGRLTSAIAKQEDVSVQLEALDIMADMLSRQGGLLVNFHPSILTCLLPQLTSPRLAVRKRTIIALGHLVMSCGNIVFVDLIEHLLSELSKNDSMSTTRTYIQCIAAISRQAGHRIGEYLEKIIPLVVKFCNVDDDELREYCIQAFESFVRRCPKEVYPHVSTIINICLKYLTYDPNYNYDDEDEDENAMDADGGDDDDQGSDDEYSDDDDMSWKVRRAAAKCLDAVVSTRHEMLPEFYKTVSPALISRFKEREENVKADVFHAYLSLLKQTRPVQSWLCDPDAMEQGETPLTMLQSQVPNIVKALHKQMKEKSVKTRQCCFNMLTELVNVLPGALTQHIPVLVPGIIFSLNDKSSSSNLKIDALSCLYVILCNHSPQVFHPHVQALVPPVVACVGDPFYKITSEALLVTQQLVKVIRPLDQPSSFDATPYIKDLFTCTIKRLKAADIDQEVKERAISCMGQIICNLGDNLGSDLPNTLQIFLERLKNEITRLTTVKALTLIAGSPLKIDLRPVLGEGVPILASFLRKNQRALKLGTLSALDILIKNYSDSLTAAMIDAVLDELPPLISESDMHVSQMAISFLTTLAKVYPSSLSKISGSILNELIGLVRSPLLQGGALSAMLDFFQALVVTGTNNLGYMDLLRMLTGPVYSQSTALTHKQSYYSIAKCVAALTRACPKEGPAVVGQFIQDVKNSRSTDSIRLLALLSLGEVGHHIDLSGQLELKSVILEAFSSPSEEVKSAASYALGSISVGNLPEYLPFVLQEITSQPKRQYLLLHSLKEIISSASVVGLKPYVENIWALLLKHCECAEEGTRNVVAECLGKLTLIDPETLLPRLKGYLISGSSYARSSVVTAVKFTISDHPQPIDPLLKNCIGDFLKTLEDPDLNVRRVALVTFNSAAHNKPSLIRDLLDTVLPHLYNETKVRKELIREVEMGPFKHTVDDGLDIRKAAFECMYTLLDSCLDRLDIFEFLNHVEDGLKDHYDIKMLTFLMLVRLSTLCPSAVLQRLDRLVEPLRATCTTKVKANSVKQEFEKQDELKRSAMRAVAALLTIPEAEKSPLMSEFQSQISSNPELAAIFESIQKDSSSTNLESMDTS

- koff: 4.4 s⁻¹
B2: ^CFPCAND2 (natural protein)
chain: MSTAAFHISSLLEKMTSSDKDFRFMATSDLMSELQKDSIQLDEDSERKVVKMLLRLLEDKNGEVQNLAVKCLGPLVVKVKEYQVETIVDTLCTNMRSDKEQLRDIAGIGLKTVLSELPPAATGSGLATNVCRKITGQLTSAIAQQEDVAVQLEALDILSDMLSRLGVPLGAFHASLLHCLLPQLSSPRLAVRKRAVGALGHLAAACSTDLFVELADHLLDRLPGPRVPTSPTAIRTLIQCLGSVGRQAGHRLGAHLDRLVPLVEDFCNLDDDELRESCLQAFEAFLRKCPKEMGPHVPNVTSLCLQYIKHDPNYNYDSDEDEEQMETEDSEFSEQESEDEYSDDDDMSWKVRRAAAKCIAALISSRPDLLPDFHCTLAPVLIRRFKEREENVKADVFTAYIVLLRQTQPPKGWLEAMEEPTQTGSNLHMLRGQVPLVVKALQRQLKDRSVRARQGCFSLLTELAGVLPGSLAEHMPVLVSGIIFSLADRSSSSTIRMDALAFLQGLLGTEPAEAFHPHLPILLPPVMACVADSFYKIAAEALVVLQELVRALWPLHRPRMLDPEPYVGEMSAVTLARLRATDLDQEVKERAISCMGHLVGHLGDRLGDDLEPTLLLLLDRLRNEITRLPAIKALTLVAVSPLQLDLQPILAEALHILASFLRKNQRALRLATLAALDALAQSQGLSLPPSAVQAVLAELPALVNESDMHVAQLAVDFLATVTQAQPASLVEVSGPVLSELLRLLRSPLLPAGVLAAAEGFLQALVGTRPPCVDYAKLISLLTAPVYEQAVDGGPGLHKQVFHSLARCVAALSAACPQEAASTASRLVCDARSPHSSTGVKVLAFLSLAEVGQVAGPGHQRELKAVLLEALGSPSEDVRAAASYALGRVGAGSLPDFLPFLLEQIEAEPRRQYLLLHSLREALGAAQPDSLKPYAEDIWALLFQRCEGAEEGTRGVVAECIGKLVLVNPSFLLPRLRKQLAAGRPHTRSTVITAVKFLISDQPHPIDPLLKSFIGEFMESLQDPDLNVRRATLAFFNSAVHNKPSLVRDLLDDILPLLYQETKIRRDLIREVEMGPFKHTVDDGLDVRKAAFECMYSLLESCLGQLDICEFLNHVEDGLKDHYDIRMLTFIMVARLATLCPAPVLQRVDRLIEPLRATCTAKVKAGSVKQEFEKQDELKRSAMRAVAALLTIPEVGKSPIMADFSSQIRSNPELAALFESIQKDSASAPSTDSMELS
